According to IntAct's records for PubMed 21098279:

B1: "Secreted effector protein EspF(U)" (Escherichia coli O157:H7), P0DJ88 (parent)
chain: MINNVSSLFPTVNRNITAVYKKSSFSVSPQKITLNPVKISSPFSPSSSSISATTLFRAPNAHSASFHRQSTAESSLHQQLPNVRQRLIQHLAEHGIKPARSMAEHIPPAPNWPAPPPPVQNEQSRPLPDVAQRLVQHLAEHGIQPARNMAEHIPPAPNWPAPPLPVQNEQSRPLPDVAQRLVQHLAEHGIQPARSMAEHIPPAPNWPAPPPPVQNEQSRPLPDVAQRLMQHLAEHGIQPARNMAEHIPPAPNWPAPTPPVQNEQSRPLPDVAQRLMQHLAEHGIQPARNMAEHIPPAPNWPAPTPPVQNEQSRPLPDVAQRLMQHLAEHGINTSKRS
partner: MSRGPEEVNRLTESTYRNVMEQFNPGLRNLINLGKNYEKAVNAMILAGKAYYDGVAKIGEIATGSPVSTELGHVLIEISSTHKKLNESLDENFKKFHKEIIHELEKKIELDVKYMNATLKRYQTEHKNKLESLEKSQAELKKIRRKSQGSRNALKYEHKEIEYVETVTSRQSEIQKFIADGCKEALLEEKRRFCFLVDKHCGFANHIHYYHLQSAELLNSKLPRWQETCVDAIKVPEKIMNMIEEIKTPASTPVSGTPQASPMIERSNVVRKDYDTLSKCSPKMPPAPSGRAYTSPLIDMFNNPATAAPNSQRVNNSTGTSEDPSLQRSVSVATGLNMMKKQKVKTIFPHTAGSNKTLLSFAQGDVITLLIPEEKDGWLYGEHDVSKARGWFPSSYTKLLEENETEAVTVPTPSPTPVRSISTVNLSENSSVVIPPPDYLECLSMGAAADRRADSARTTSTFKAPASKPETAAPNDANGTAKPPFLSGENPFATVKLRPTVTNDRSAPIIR

Variants of: B1
Details: with bi2l1_human BAIAP2L1, Q9UHR4

**Q.** For N299P;W300P, which “effect of a mutation on the interaction” value is on record?
**A.** decreasing interaction

**Q.** For N299A;W300A;P301A, which “effect of a mutation on the interaction” value is on record?
**A.** decreasing interaction

**Q.** How did the “effect of a mutation on the interaction” value turn out when N299G;W300G;P301G was run?
**A.** decreasing interaction
